Results published in article PMC9433394.

Biological target: chicken skeletal muscle actin (chicken) (UniProt P68139)
Assay: SEC; 20 uM chicken G-actin mixed with 2DGel at ratios 1:1, 1:2 and 2:1 in 1X KMI-Ca buffer (50 mM KCl, 10 mM imidazole, 1 mM MgCl2, 1 mM CaCl2), 30 min, Enrich SEC 650; peak fractions analysed by SDS-PAGE

stoichiometry N (actin per Heim2DGel) | stoichiometry N (actin per MKD1-2DGel) | Substance
1 | – | Heim2DGel (two-domain gelsolin of Heimdallarchaeota LC_3) (natural protein)
– | 2 | MKD1-2DGel (two-domain gelsolin of Candidatus Prometheoarchaeum syntrophicum MK-D1) (natural protein)
